Tests used:
MERS-HR2P (MERS-CoV) [1] = experiment: BLI
MERS-HR2P (MERS-CoV) [2] = experiment: ELISA
[3] = target: MERS-five-helix bundle (MERS-5HB) (MERS-CoV) (UniProt K0BRG7); experiment: ELISA

| Substance | Kd (MERS-HR2P (MERS-CoV) [1]) | koff (MERS-HR2P (MERS-CoV) [1]) | kon (MERS-HR2P (MERS-CoV) [1]) | EC50 (MERS-HR2P (MERS-CoV) [2]) | EC50 [3] |
| --- | --- | --- | --- | --- | --- |
| MERS-five-helix bundle (MERS-5HB) (from UniProt K0BRG7) (designed binder) | 0.24 nM | 1.26e-05 s⁻¹ | 52600 M⁻¹ s⁻¹ | 5.4 nM |  |
| MERS-HR2P (peptide) |  |  |  |  | 31.8 nM |

From PMC5618021
